For four proteins, pKa results are on record in PMC8748748.

Common to all, as to experiment: potentiometry
Data set [1] concerns the target Nterm1 (position 1, -----KCNTAT).
Data set [2] has as its target Tyr37 (position 37, VGSNTY-----).
The target in data set [3] is Lys1 (position 1, -----KCNTAT).
In another data set the target is His18 (position 18, …).
Data set [4] deals with His18 (position 18, ANFLVHS----).
Where [5] appears, read: 298 K, 40 mM SDS (stated as the ionic strength), none (ligand 0.5 mM; electrode calibrated by titrating HClO4 with NaOH), metal-free peptide in SDS, helical-like structure by CD.
[6] abbreviates: not stated for the quoted titrations (the Figure 4 competition plot caption gives T = 298 K), metal-free peptide in water, cited from earlier work.
Setting [7] is: 298 K, 40 mM SDS (stated as the ionic strength), none (ligand 0.5 mM, Cu(II):ligand 0.9:1), Cu(II)-bound peptide (1:1 complex) in SDS, the titrating residue is not coordinated to the metal.

B1: Rat amylin (islet amyloid polypeptide, IAPP) (Rattus norvegicus) (peptide)
chain: KCNTATCATQRLANFLVRSSNNLGPVLPPTNVGSNTY
For B1, the pKa in data set [1] (setting [5]) is listed as 7.85; in data set [1] (setting [6]), 7.13; in data set [2] (setting [7]) it was 9.61; in data set [2] (setting [5]), 10.08; in data set [2] (setting [6]) it was 9.49; in data set [3] (setting [7]), 10.04. The pKa in data set [3] (setting [5]) is on record as 10.44; in data set [3] (setting [6]) it was 10.20.

B2: Pramlintide (synthetic human amylin analogue, Symlin) (Homo sapiens (synthetic analogue); A25P;S28P;S29P) (peptide)
chain: KCNTATCATQRLANFLVHSSNNFGPILPPTNVGSNTY
Take B2: the pKa in data set [1] (setting [5]) is 8.39; in data set [1] (setting [6]), 7.53; with His18 (position 18, …) (setting [5]), 6.76; in the data set with His18 (position 18, …) (setting [6]), 5.79; in data set [2] (setting [7]), 10.28; in data set [2] (setting [5]) it was 9.93. Besides, the pKa is 9.67 in data set [2] (setting [6]), 10.89 in data set [3] (setting [7]), 10.92 in data set [3] (setting [5]) and 10.32 in data set [3] (setting [6]).

B3: Ac-pramlintide (N-acetylated pramlintide) (Homo sapiens (synthetic analogue); A25P;S28P;S29P) (peptide)
chain: KCNTATCATQRLANFLVHSSNNFGPILPPTNVGSNTY
Consider B3, for which the pKa turned out to be 7.57 with His18 (position 18, …) (setting [5]); 10.01 in data set [2] (setting [5]); 10.50 in data set [3] (setting [5]).

B4: Amylin(1-19), membrane-disrupting fragment of human amylin (IAPP) (Homo sapiens) (peptide)
chain: KCNTATCATQRLANFLVHS
For the protein B4, the pKa is 8.98 in data set [1] (setting [7]); 8.18 in data set [1] (setting [5]); 7.97 in data set [1] (setting [6]); 7.28 in data set [4] (setting [5]); 6.04 in data set [4] (setting [6]); 10.05 in data set [3] (setting [7]). Moreover, the pKa in data set [3] (setting [5]) is 9.88; in data set [3] (setting [6]), 10.83.
